Source: publication PMC5340911

T1: Pab2 (nuclear poly(A) binding protein) (Schizosaccharomyces pombe, UniProt O14327 1-166)
T1 sequence: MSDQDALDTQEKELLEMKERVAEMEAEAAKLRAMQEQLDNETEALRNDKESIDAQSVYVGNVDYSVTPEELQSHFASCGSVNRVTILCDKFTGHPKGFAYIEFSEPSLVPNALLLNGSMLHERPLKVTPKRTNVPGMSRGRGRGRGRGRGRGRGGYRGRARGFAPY

T2: PABPN1 (His-PABPN1) (bovine, UniProt Q28165 1-306)
T2 sequence: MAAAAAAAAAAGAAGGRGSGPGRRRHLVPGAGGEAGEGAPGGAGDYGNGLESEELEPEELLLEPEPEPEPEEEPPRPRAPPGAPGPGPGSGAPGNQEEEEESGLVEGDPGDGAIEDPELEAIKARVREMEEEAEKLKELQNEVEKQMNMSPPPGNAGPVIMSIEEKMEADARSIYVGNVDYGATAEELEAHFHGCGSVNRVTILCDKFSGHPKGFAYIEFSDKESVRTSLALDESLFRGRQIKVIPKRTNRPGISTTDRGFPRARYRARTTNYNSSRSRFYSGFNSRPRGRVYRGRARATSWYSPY

B1: A100 (ssRNA)
RNA: AAAAAAAAAAAAAAAAAAAAAAAAAAAAAAAAAAAAAAAAAAAAAAAAAAAAAAAAAAAAAAAAAAAAAAAAAAAAAAAAAAAAAAAAAAAAAAAAAAAA

Tests used:
Assay in all cases: filter binding
[1] = target: T1, Pab2 (nuclear poly(A) binding protein)
PABPN1 (His-PABPN1) = target: T2, PABPN1 (His-PABPN1)
[2] = target: T1, Pab2 (nuclear poly(A) binding protein); remark: listed apart in the source

| Binder | Kd [1] [nM] | binding result (PABPN1 (His-PABPN1)) | binding result [2] |
| --- | --- | --- | --- |
| AAAAAAAAAAAAAA (ssRNA) [A14] | 5.3 ± 1.1 | – | – |
| B1 | – | binds | binds |
